# Values joined by “and” are separate entries in the source; they are usually repeats but may differ in a detail not shown here. Equal entries are not always repeated. “Also recorded” adds a separate entry of the source.
# B1: STA: Solanum tuberosum apyrase, commercially available potato apyrase from Sigma-Aldrich, SEQ ID NO: 9 (protein, listed as Solanum tuberosum)
# chain: MLNQNSHFIFIILAIFLVLPLSLLSKNVNAQIPLRRHLLSHESEHYAVIFDAGSTGSRVHVFRFDEKLGLLPIGNNIEYFMATEPGLSSYAEDPKAAANSLEPLLDGAEGVVPQELQSETPLELGATAGLRMLKGDAAEKILQAVRNLVKNQSTFHSKDQWVTILDGTQEGSYMWAAINYLLGNLGKDYKSTTATIDLGGGSVQMAYAISNEQFAKAPQNEDGEPYVQQKHLMSKDYNLYVHSYLNYGQLAGRAEIFKASRNESNPCALEGCDGYYSYGGVDYKVKAPKKGSSWKRCRRLTRHALKINAKCNIEECTFNGVWNGGGGDGQKNIHASSFFYDIGAQVGIVDTKFPSALAKPIQYLNAAKVACQTNVADIKSIFPKTQDRNIPYLCMDLIYEYTLLVDGFGLNPHKEITVIHDVQYKNYLVGAAWPLGCAIDLVSSTTNKIRVASS
# B2: SFA: Apyrase derived from Shigella flexneri, recombinant or non-recombinant; native sequence SEQ ID NO: 10 (protein, listed as Shigella flexneri)
# chain: MKTKNFLLFCIATNMIFIPSANALKAEGFLTQQTSPDSLSILPPPPAENSVVFQADKAHYEFGRSLRDANRVRLASEDAYYENFGLAFSDAYGMDISRENTPILYQLLTQVLQDSHDYAVRNAKEYYKRVRPFVIYKDATCTPDKDEKMAITGSYPSGHASFGWAVALILAEINPQRKAEILRRGYEFGESRVICGAHWQSDVEAGRLMGASVVAVLHNTPEFTKSLSEAKKEFEELNTPTNELTP
# B3: rSFA: Recombinant Shigella flexneri apyrase with 6-His tag, amino-acid sequence SEQ ID NO: 4, expressed in E. coli BL21-A1 (protein, listed as Shigella flexneri)
# chain: DIHMKTKNFLLFCIATNMIFIPSANALKAEGFLTQQTSPDSLSILPPPPAENSVVFQADKAHYEFGRSLRDANRVRLASEDAYYENFGLAFSDAYGMDISRENTPILYQLLTQVLQDSHDYAVRNAKEYYKRVRPFVIYKDATCTPDKDEKMAITGSYPSGHASFGWAVALILAEINPQRKAEILRRGYEFGESRVICGAHWQSDVEAGRLMGASVVAVLHNTPEFTKSLSEAKKEFEELNTPTNELTPHHHHHHRTMF
# modifications: 6-His tag
# What was measured:
# rSFA = test: Inhibitor development: inhibition of rSFA; format: biochemical, Shigella flexneri
# Method: After checking the rSFA inhibitory activity in buffer, it was verified with urine, where 10 μl were added with 80 μl of cell lysate reagent and 10 μmol/L of ATP. About 100 mM of MgSO4 and 1 mM of Na3VO4 were added in separate tubes and incubated for 10 min before measuring the light emission using firefly luciferase.
# firefly luciferase = target: T1, firefly luciferase (Photinus pyralis, UniProt P08659); test: Inhibitor development: effect on luciferase; format: biochemical
# T1 construct: purchased BioThema AB, Sweden ATP Kit SL
# Method: After checking the rSFA inhibitory activity in buffer, it was verified with urine, where 10 μl were added with 80 μl of cell lysate reagent and 10 μmol/L of ATP. […]
# [1] = HPLC analysis of nucleotide degradation: dCTP; format: biochemical
# Method: (§1) To compare rSFA activity on nucleotides to that of STA, ATP, dATP, dTTP, dGTP and dCTP were incubated with the enzymes (same initial activity) for 5 min and 35 min and the resulting products were detected using high performance liquid chromatography (HPLC).
# (§2) The dNTP Standard preparation was prepared to contain final concentration of 0.1 mM […]. Nucleosides ATP/dATP/dCTP/dGTP/dTTP were suspended in Tris-EDTA buffer and diluted 10 times with the mobile phase (70% acetonitrile, 30% ammonium acetate pH 5.35). The above-prepared nucleosides were individually incubated with equal amounts of rSFA and STA for 35 min at pH 7.75 and 5 μl of the mixture was injected into HPLC instrument (SeQuant ZIC®-pHILIC column, Merck Millipore) at a flow rate of 0.7 mL/min using a pump (Jasco PU-2089 Plus). Peaks were detected at 254 nm by UV-2075 Plus detector and the chromatographic separation was achieved using isocratic elution. Analysis was performed using Chrompass software, where each nucleotide/nucleoside was identified by comparison with retention time of the respective standards.
# [2] = HPLC analysis of nucleotide degradation: dATP; format: biochemical
# Method: as §1, §2
# [3] = Elimination of extracellular ATP in serum, bioluminescent assay; format: biochemical; set-up: ATP depletion rate: unit not given beside the values; conditions: for time after which no further ATP elimination: 10% serum, FIG. 8; for time to complete hydrolysis of ATP and its analogues: 100% crude serum, FIG. 6A
# Method: (§3) Cuvettes contained 100 μL sample in a total volume of 1 mL containing ATP Reagent SL (BioThema AB, Sweden) in 0.07 mol/L Tris- EDTA Buffer and the reaction was started by injection of 10 μL 10 μmol/L ATP Standard. The initial apyrase activity was determined as described by Lundin and coworkers (Analytical Biochemistry 75, 611-620 (1976) and Methods in Enzymology vol 305, 346-370 (2000)) with some modifications. Bioluminescence was measured at every 10 s during 1 min, in the fully automatic 1251 Luminometer (LKB-Wallac, Turku, Finland). To this, 10 μl of 10 μmol/L ATP was added to determine the background ground luminescence. The temperature control was set to 25° C. and bioluminescence was measured from several cuvettes in parallel during 30 or 60 minutes and compared to residual ATP after various incubation times using rSFA and STA. This was repeated with rSFA and STA and a graph was plotted by keeping the ATP-degradation rate as internal control to determine the ATP-degradation efficiency of both of the enzyme sources.
# (§4) Light emission from the firefly-luciferase reaction was measured at 25° C. in a 1251 Luminometer (LKB-Wallac; Finland) using the ATP Kit SL (BioThema AB, Sweden) according to the manufacture's instruction (in buffer experiment) or adding concentrated luciferase (in serum/urine experiments). Initially luciferase reaction follows first-order kinetics and the ATP Reagent SL in this kit produces light intensity proportional to the ATP concentration. A plot of the natural logarithm of the light intensity versus time yields a straight line with the slope representing the rate constant of the reaction. Starting concentration of STA, A6535, A6237 (Sigma-Aldrich) was adjusted similar to rSFA. BL-reaction was started automatically upon addition of 0.2 μmol/L ATP, and the light intensity was measured every 10 second for 10 minutes (in buffer experiment) or 30 minutes (in serum and urine experiments), in the reaction volume of 0.5 mL.
# [4] = ATP elimination in urine, bioluminescent assay; format: biochemical; conditions: for time to complete ATP elimination: after 4 subsequent injections of 10 μL 10 μmol/L ATP
# Method: as §4
# [5] = HPLC analysis of nucleotide degradation: ATP; format: biochemical; conditions: for time to complete conversion of ATP: STA to ADP and AMP, rSFA to AMP
# Method: as §1, §2
# [6] = HPLC analysis of nucleotide degradation: dTTP; format: biochemical; conditions: STA to TDP and TMP, rSFA to TMP
# Method: as §1, §2
# [7] = ATP degradation by apyrase in buffer, firefly luciferase bioluminescent assay; format: biochemical; conditions: for time to eliminate ATP: enzymes diluted 10× in Tris-EDTA Buffer; for ATP depletion rate: No serum (Negative control)
# Method: as §3, §4
# [8] = Hydrolysis of ADP and ATP/ADP mixture in urine; format: biochemical; conditions: 10 μmol/L, FIG. 10
# Method: as §4, with “BL-reaction was started automatically upon addition of 0.2 μmol/L ATP, and the light intensity was measured every 10 second for 10 minutes (in buffer experiment) or 30 minutes (in serum and urine experiments), in the reaction volume of 0.5 mL.” left out
# [9] = ATP degradation by apyrase in buffer, firefly luciferase bioluminescent assay; format: biochemical
# [10] = SFA stability to freeze-thaw and refrigerator storage; format: physicochemical; conditions: crude form, without addition of stabilizers
# Method: The rSFA samples were kept at 4° C., then frozen and freeze-thawed to check its stability. An effort was made to see if the rSFA could be used to prepare a reagent for the depletion of extraneous ATP in biological samples.
# [11] = SFA activity across pH and in EDTA; format: biochemical
# [12] = Buffer optimization: rSFA activity after storage, bioluminescent ATP-elimination assay; format: physicochemical; conditions: stored in Buffer 3 about 10 months at +4° C.; compared with Buffer 1 and 2
# Method: Equal concentration of rSFA was stored in Buffer 1(20 mM Tris, 1 mM EDTA, 1% BSA, 25 mM MgSO4, pH 7.5), Buffer 2 (20 mM Tris, 25 mM MgSO4, 2.5% BSA, pH 7.5) and Buffer 3 (20 mM HEPES, 500 mM NaCl, 25 mM MgSO4, pH 7.5) for about 10 months at 4° C. Bioluminescence activity assay was performed as described below to detect the activity of rSFA after storage.
# [13] = Undiluted serum (100% crude serum)
# T1 sequence (P08659 whole entry): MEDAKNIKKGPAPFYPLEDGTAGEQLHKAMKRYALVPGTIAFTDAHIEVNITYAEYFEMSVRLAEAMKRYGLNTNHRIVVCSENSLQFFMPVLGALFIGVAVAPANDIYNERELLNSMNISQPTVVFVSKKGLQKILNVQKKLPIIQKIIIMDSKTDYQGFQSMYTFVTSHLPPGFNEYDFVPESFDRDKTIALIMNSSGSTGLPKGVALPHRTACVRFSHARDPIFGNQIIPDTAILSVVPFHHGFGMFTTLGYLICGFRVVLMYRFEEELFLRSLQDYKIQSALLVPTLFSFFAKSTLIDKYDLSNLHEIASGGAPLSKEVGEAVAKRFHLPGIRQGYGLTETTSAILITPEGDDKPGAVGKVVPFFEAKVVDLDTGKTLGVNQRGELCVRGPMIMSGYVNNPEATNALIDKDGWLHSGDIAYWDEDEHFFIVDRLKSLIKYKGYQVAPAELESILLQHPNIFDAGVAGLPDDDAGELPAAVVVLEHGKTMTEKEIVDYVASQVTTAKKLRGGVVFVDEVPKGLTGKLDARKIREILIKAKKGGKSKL
molecule,measurement,setting,value
O=S(=O)([O-])[O-].[Mg+2] [MgSO4],inhibition of rSFA activity,rSFA; 100 mM MgSO4,showed inhibitory action
same,inhibition of rSFA activity,rSFA; magnesium at 50 mM,completely inhibit
same,effect on luciferase activity,firefly luciferase; 100 mM MgSO4,affected the activity of luciferase
same,effect on luciferase activity,firefly luciferase; magnesium at 50 mM,decreased the activity of luciferase
[O]=[V]([O-])([O-])[O-] [ortho-vanadate],inhibition of rSFA activity,rSFA; 1 mM ortho-vanadate (Na3VO4),completely inhibited
same,effect on luciferase activity,firefly luciferase; 1 mM ortho-vanadate,did not affect luciferase at all
B1,portion of dCTP converted into CDP and CMP,[1]; after 35 min,only half
same,dATP remaining,[2]; after 35 min of incubation,more than 25%
same,ATP depletion rate,[3]; 10% Diluted serum,2.429
same,time after which no further ATP elimination,[3],6 min
same,time to complete hydrolysis of ATP and its analogues,[3],~45 min
same,ATP depletion rate,[3]; [13],0.5536
same,time after which rate of action was hindered,[4]; FIG. 9,3 min
same,time to complete ATP elimination,[4],> 20 min
same,cleavage of ATP to ADP and AMP,[5]; 5 min incubation,only partially cleaved
same,time to complete conversion of ATP,[5],35 min
same,time to conversion of dTTP,[6],35 min
same,Initial activity,[7],4.12 Units/mg protein
same,time to eliminate ATP,[7]; FIG. 4,> 60 min
same,ATP depletion rate,[7],3.52
same,Remaining ATP activity after 1 min,[7]; after 1 min,1.1876%
same,Remaining ATP activity after 17 min,[7]; after 17 min,0.0367%
same,amount of ATP remaining lower in STA samples compared to rSFA (factor),[7]; after one minute,~2
same,change of activity with ADP or mixture of ADP and ATP,[8],considerably decreased
same,Remaining ATP activity after 91 min,[9],0.0228%
B2,stability,[10],tolerates freeze-thaw-cycles and storage in solution at refrigerator temperatures
same,activity in high concentrations of EDTA,[11],remains to be active
same,pH range of very good activity,[11],7.0-7.5
B3,time to complete conversion of dCTP into CMP,[1],less than 5 min
same,time to full conversion of dATP into dAMP,[2],less than 5 min
same,ATP depletion rate,[3]; 10% Diluted serum,1.774
same,time after which no further ATP elimination,[3],> 30 min
same,time to complete hydrolysis of ATP and its analogues,[3],~17 min
same,ATP depletion rate,[3]; [13],1.816
same,time to complete ATP elimination,[4],less than 3 min
same,time to complete conversion of ATP,[5],less than 5 min
same,time to conversion of dTTP,[6],less than 5 min
same,rate constant of ATP elimination,[7]; FIG. 4,3.87 min⁻¹
same,time to eliminate ATP,[7]; FIG. 4,~10 min and ~15 min
same,ATP depletion rate,[7],3.98
same,time after which saturated and ineffective in further reducing the ATP concentration,"[7]; in buffer, FIG. 7",> 300 s
same,change of activity with ADP or mixture of ADP and ATP,[8],no substantial difference; also recorded: not affected
same,activity after storage,[12],particularly good activity; also recorded: very good activity

# Source: patent publication US20170321196A1, “ANALYTICAL AND DIAGNOSTIC METHODS UTILIZING SHIGELLA FLEXNERI APYRASE” (priority 2014, published 2017)
